The source of these data is article PMC3676455.

Holding throughout (assay): fluorescence anisotropy
(Polarisation of emitted light reports the rotation of a fluorescent probe.)

The target of data set [1] is T1, [2Fe-2S]-IscR wild-type (Escherichia coli, UniProt P0AGK8 1-162).
T1 sequence: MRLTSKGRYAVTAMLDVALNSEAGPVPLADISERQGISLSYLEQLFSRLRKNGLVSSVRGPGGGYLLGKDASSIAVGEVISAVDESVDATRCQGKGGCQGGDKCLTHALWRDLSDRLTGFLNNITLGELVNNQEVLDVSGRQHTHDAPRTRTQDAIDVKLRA

Data set [2] has as its target T2, [2Fe-2S]-IscR-S40A (Escherichia coli, UniProt P0AGK8 1-162, S40A).
T2 sequence: T1 sequence with S40A

Data set [3] concerns the target T3, [2Fe-2S]-IscR-R59A (Escherichia coli, UniProt P0AGK8 1-162, R59A).
T3 sequence: T1 sequence with R59A

The target in data set [4] is T4, [2Fe-2S]-IscR-E43A (Escherichia coli, UniProt P0AGK8 1-162, E43A).
T4 sequence: T1 sequence with E43A

Substitutions are numbered along the chain they refer to.

B1: iscRB 30-mer (type 1) (dsDNA)
DNA 1: AAATAGTTGACCATTTTACTCGGGAATGTC
DNA 2: GACATTCCCGAGTAAAATGGTCAACTATTT
As usually defined, the Kd is the constant that tells how readily two partners part at equilibrium. In the case of B1, the results for the equilibrium dissociation constant (Kd) in data set [1], in data set [2] and in data set [4] were 24 ± 1 nM, 94 ± 3 nM and 21 ± 1 nM, respectively. In addition, in data set [3], the binding result was “no binding”.

B2: iscRBcc (symmetrical CC) (dsDNA)
DNA 1: B1 DNA 1 with T7C, T8C
DNA 2: B1 DNA 2 with A23G, A24G
Consider B2, for which the binding result in data set [1] is “binds”.

B3: hya 30-mer (type 2) (dsDNA)
DNA 1: ATAAATCCACACAGTTTGTATTGTTTTGTG
DNA 2: CACAAAACAATACAAACTGTGTGGATTTAT
As to B3, the binding result in data set [4] was “binds”.
